# Data from patent US20250243282A1 (TRUEBINDING, published 2025).
# B1: 6H6.2D6 (antibody, human IgG4 S228P, kappa, V domains shown)
# VH: QIQLVQSGPELKKPGETVKISCKASGYTFTTYGMSWVKQAPGKGLKWMAWINTYSGVPTYADDFKGRFAFSLETSASTAYLQINNLTNEDTATYFCARGPYAMDYWGQGTSVTVSS
# VL: DIQMTQTTSSLSASLGDRVTISCSASQGISNYLNWYQQKPDGTVKLLIYYTSSLHSGVPSRFSGSGSGTDYSLTISNLEPEDIATYYCQQYSELPYTFGSGTKLEIKR
# B2: 2D10.2B2 (antibody, mouse IgG2a, V domains shown)
# VH: QVQLQQSGPELVKPGASVKISCKASGYTFTDYYINWVKQRPGQGLEWIGWIYPGSNDTKYNEKFKGKATLTVDTSSSTAYMQLGSLTSEDSAVYFCANYFGCSGWFFDVWGTGTTVTVSS
# VL: DIVMTQAAFSNPVTLGTSASISCRSSKSLLHSDGITYLYWYLQRPGQSPQLLIYRMSNLASGVPDRFSGSGSGTDFTLRISRVEAEDVGVYYCAQMIEFPLTFGAGTILELKR
# B3: 847.15F9 (antibody, V domains shown)
# VH: QVQMKQSGPGLVQPSQSLSITCTVSGFSLINYGVHWVRQSPGKGLEWLGVIWSGGSTDYNAAFISRLSISKDNSKSQVFFKMNSLQADDTAIYYCARIYYYGRGYAMDYWGQGTSVTVSS
# VL: QIVLSQSPAILSASPGEKVTMTCRASSSVTYMYWYQQKPGSSPQPWIYATSNLASGVPARFSGSGSGTSYSLTISRVEAEDAATYYCQQWSSNPLTFGAGTKLELK
# B4: 847.21B11 (antibody, V domains shown)
# VH: QVQLKQSGPGLVAPSQSLSITCTVSGFSLTSYGVHWVRQPPGKGLEWLGIIWAGGSTNYNPALMSRLSISKDKSKSQVFLKMNSLKTDDTAMYYCARDRASLLRPGAMDYWGQGTSVTVSS
# VL: DIVMTQSQKFMSTSVGDRVSVTCKASQNVGINVAWYQQKPGQSPKALIYSASYRYSGVPDRFTGSGSGTDFTLTISNVQSEDLAEYFCQQYNSYPYTFGGGTKLEMK
# B5: mIMT001 (antibody, mouse IgG2a, V domains shown)
# VH: QIQLVQSGPELKKPGETVKISCKASGYTFTNYGMNWVKQAPGKGLKWMGWINTNTGEPTYVEEFKGRFAFSLETSASTAYLQINNLKNEDTATYFCAPYDNFFAYWGQGTLVTVSA
# VL: DIVITQDELSNPVTSGESVSISCRSSKSLLYKDGKTYLNWFLQRPGQSPQLLIYLMSTHASGVSDRFSGSGSGTDFTLEISRVKAEDVGVYYCQQLVDYPLTFGAGTKLELKR
# notes: also called murine IMT1; mIMT1
# B6: recombinant human CD147, 6xHis-tagged (R&D Systems, 972-EMN) (receptor, not shown: small tags and cut ends)
# chain: AAGTVFTTVEDLGSKILLTCSLNDSATEVTGHRWLKGGVVLKEDALPGQKTEFKVDSDDQWGEYSCVFLPEPMGTANIQLHGPPRVKAVKSSEHINEGETAMLVCKSESVPPVTDWAWYKITDSEDKALMNGSESRFFVSSSQGRSELHIENLNMEADPGQYRCNGTSSKGSDQAIITLRVRSHLAAL
# notes: also called hCD147; EMMPRIN
# B7: TB001 (antibody, human IgG4 S228P, kappa, V domains shown)
# VH: QVQLVQSGSELKKPGASVKVSCKASGYTFTNYGMNWVRQAPGQGLKWMGWINTNTGEPTYVEEFTGRFVFSLETSVSTAYLQISSLKAEDTAVYFCAPYDNFFAYWGQGTTVTVSS
# VL: DIVLTQSPLSLPVTPGEPASISCRSSKSLLYKDGKTYLNWFLQKPGQSPQLLIYLMSTHASGVPDRFSGSGSGTDFTLKISRVEAEDVGVYYCQQLVDYPLTFGGGTKLEIKR
# B8: 24D12.2H9 (antibody, human IgG4 S228P, kappa, V domains shown)
# VH: QVQLKQSGPGLVQPSQSLSITCTVSGFSLTSYGVHWVRQAPGKGLEWLGVIWSGGSTDYNAAFMSRLSISKDNSKSQVFFKMNSLQADDTAIYYCAKSPDGYDVAWFGYWGQGTLVTVSA
# VL: DIVMTQSHKFMSTSVGDRVSITCKASQDVRTAVAWYQQKPGQSPKLLIYWASTRHTGVPDRFTGSGSGTDFTLTLSNVQSEDLADYFCQQYSSYPWTFGGGTKLEIKR
# Experiments:
# [1] = biological target: T1, human Gal3 protein (recombinant human Galectin-3) (human, UniProt P17931 2-250)
# T1 construct: also called hGal3; hGAL3
# T1 sequence (P17931 2-250 limits assumed): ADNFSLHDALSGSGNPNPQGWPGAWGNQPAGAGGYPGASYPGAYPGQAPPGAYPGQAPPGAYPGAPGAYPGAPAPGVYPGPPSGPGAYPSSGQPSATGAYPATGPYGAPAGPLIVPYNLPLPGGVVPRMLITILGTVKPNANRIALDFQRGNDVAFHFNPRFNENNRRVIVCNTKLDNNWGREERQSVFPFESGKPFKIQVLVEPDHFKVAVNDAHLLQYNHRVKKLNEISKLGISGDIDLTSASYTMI
# [2] = biological target: T2, Recombinant human Gal3 (rhGal3) (TrueBinding, #QC200361) (human, UniProt P17931 2-250); assay: cell-based or functional assay
# [3] = biological target: T2, Recombinant human Gal3 (rhGal3) …; assay: cell-based or functional assay; remark: listed apart in the source
# [4] = biological target: T1, human Gal3 protein (recombinant human …); assay: SPR (Carterra LSA), antibody immobilised on HC200M chip, hGal3 injected
# [5] = biological target: T1, human Gal3 protein (recombinant human …); assay: ELISA, hGal3 coated, receptor in solution
# [6] = biological target: T2, Recombinant human Gal3 (rhGal3) …; assay: cell-based or functional assay; remark: listed apart in the source
# Throughout, for % inhibition of CD62L shedding: test concentration or dose not given here.
# Throughout, for % inhibition of IL-6 secretion: test concentration or dose not given here.
# Throughout, for % inhibition of TNFα secretion: test concentration or dose not given here.
Binder,% blocking [1],% inhibition of CD62L shedding [2],% inhibition of IL-6 secretion [3],% inhibition of TNFα secretion [3],also measured
B1,> 95%,,,,
B2,> 95%,,,,
B3,,8.5%,16.6%,-178%,binding result [4]: no binding
B4,,16.4%,27.3%,-136%,binding result [4]: no binding
B5,> 95%,,,,
B6,,,,,binding result [5]: binds
B7,,87.2%,45.6%,81.4%,IC50 of blocking IL-6 secretion by HL60-derived neutrophils (rhGal3 + LPS) [6]: 509 nM; IC50 of blocking TNFα secretion by HL60-derived neutrophils (rhGal3 + LPS) [6]: 393 nM
B8,55%,73.1%,22.3%,46.5%,
